In assay [1] the target is Nicotinamide Nucleotide Transhydrogenase (NNT), endogenous, mouse kidney (mouse) (UniProt Q61941). As to the kind of experiment: anti-HA immunoprecipitation from DTSSP-crosslinked crude mitochondria, LC-MS/MS proteomics, n=3 per group.
In assay [2] the target is Ganab (glucosidase II alpha-subunit), endogenous, mouse kidney (mouse) (UniProt Q8BHN3). The assay can be described thus: anti-HA immunoprecipitation from DTSSP-crosslinked crude mitochondria (contain MAMs), LC-MS/MS proteomics.
Sequence of Ganab (glucosidase II alpha-subunit), endogenous, mouse kidney (mouse) (Q8BHN3 33-944 limits assumed): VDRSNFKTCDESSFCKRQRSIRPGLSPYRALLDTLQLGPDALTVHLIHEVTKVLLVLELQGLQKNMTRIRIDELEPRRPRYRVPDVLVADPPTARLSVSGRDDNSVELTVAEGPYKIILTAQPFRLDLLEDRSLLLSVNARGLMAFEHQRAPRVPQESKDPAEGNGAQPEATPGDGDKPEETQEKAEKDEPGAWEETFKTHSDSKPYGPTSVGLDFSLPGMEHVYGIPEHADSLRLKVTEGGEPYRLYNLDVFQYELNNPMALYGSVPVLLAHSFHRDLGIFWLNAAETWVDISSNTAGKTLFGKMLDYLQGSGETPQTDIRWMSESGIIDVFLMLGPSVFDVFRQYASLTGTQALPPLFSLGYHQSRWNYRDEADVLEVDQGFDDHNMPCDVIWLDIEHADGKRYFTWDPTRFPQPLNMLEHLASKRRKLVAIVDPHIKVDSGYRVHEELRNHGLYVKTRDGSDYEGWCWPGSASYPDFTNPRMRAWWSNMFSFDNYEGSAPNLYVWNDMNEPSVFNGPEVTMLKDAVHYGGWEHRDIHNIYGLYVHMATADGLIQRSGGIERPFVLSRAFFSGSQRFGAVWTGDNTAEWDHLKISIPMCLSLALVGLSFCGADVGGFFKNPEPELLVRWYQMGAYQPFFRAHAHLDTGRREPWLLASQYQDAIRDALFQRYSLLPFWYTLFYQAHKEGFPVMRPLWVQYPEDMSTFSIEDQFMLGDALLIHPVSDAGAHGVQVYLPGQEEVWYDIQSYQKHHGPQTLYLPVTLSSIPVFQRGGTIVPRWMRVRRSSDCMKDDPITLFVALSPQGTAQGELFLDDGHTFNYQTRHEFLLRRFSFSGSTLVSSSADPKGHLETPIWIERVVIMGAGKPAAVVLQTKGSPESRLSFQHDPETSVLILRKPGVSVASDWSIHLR

A value given as a limit tells only on which side of the number the result lay.

Sequence of 3FLAG-PC1-3HA (PC1 tagged with a 3xFLAG epitope at its N-terminus and a 3xHA sequence at its C-terminus, Pkd1F/H-BAC mouse) and its HA-tagged fragments (150-kDa CTF; PC1-CTT-3HA fragments of 17-37 kDa (O08852 3041-4293): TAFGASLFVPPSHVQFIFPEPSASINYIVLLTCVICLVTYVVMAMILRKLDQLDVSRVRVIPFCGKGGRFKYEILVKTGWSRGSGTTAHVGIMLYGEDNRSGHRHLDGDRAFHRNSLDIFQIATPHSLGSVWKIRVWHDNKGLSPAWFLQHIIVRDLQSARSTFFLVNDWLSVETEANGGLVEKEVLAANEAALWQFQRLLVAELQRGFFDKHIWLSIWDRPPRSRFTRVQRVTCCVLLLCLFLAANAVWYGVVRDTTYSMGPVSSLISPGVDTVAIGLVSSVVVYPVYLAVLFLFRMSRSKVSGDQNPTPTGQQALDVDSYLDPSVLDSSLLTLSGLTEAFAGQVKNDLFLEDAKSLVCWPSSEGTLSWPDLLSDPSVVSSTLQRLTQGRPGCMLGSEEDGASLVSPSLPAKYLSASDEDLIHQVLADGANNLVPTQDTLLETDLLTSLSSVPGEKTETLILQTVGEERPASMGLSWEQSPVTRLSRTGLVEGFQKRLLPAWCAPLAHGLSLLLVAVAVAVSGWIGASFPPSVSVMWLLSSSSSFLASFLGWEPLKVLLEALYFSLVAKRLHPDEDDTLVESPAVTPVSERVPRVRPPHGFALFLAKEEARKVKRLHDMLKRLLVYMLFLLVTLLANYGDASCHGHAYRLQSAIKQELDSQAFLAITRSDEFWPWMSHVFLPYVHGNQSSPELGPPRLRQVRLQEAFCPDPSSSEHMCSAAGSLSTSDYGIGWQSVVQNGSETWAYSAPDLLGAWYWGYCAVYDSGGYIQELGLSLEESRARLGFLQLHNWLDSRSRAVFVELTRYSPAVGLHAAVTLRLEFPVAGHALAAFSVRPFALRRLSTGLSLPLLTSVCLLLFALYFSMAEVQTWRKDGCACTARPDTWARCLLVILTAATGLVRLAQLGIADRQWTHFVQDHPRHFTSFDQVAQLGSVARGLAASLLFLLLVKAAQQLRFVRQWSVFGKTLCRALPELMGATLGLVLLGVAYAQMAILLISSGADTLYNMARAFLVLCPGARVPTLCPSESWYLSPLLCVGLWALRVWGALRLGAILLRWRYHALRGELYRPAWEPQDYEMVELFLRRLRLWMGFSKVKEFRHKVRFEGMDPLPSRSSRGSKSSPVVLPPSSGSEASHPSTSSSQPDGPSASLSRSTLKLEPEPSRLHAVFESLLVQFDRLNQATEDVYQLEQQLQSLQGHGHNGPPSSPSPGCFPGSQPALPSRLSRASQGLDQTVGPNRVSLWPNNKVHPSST
Sequence of Nicotinamide Nucleotide Transhydrogenase (NNT), endogenous, mouse kidney (mouse) (Q61941 44-1086 limits assumed): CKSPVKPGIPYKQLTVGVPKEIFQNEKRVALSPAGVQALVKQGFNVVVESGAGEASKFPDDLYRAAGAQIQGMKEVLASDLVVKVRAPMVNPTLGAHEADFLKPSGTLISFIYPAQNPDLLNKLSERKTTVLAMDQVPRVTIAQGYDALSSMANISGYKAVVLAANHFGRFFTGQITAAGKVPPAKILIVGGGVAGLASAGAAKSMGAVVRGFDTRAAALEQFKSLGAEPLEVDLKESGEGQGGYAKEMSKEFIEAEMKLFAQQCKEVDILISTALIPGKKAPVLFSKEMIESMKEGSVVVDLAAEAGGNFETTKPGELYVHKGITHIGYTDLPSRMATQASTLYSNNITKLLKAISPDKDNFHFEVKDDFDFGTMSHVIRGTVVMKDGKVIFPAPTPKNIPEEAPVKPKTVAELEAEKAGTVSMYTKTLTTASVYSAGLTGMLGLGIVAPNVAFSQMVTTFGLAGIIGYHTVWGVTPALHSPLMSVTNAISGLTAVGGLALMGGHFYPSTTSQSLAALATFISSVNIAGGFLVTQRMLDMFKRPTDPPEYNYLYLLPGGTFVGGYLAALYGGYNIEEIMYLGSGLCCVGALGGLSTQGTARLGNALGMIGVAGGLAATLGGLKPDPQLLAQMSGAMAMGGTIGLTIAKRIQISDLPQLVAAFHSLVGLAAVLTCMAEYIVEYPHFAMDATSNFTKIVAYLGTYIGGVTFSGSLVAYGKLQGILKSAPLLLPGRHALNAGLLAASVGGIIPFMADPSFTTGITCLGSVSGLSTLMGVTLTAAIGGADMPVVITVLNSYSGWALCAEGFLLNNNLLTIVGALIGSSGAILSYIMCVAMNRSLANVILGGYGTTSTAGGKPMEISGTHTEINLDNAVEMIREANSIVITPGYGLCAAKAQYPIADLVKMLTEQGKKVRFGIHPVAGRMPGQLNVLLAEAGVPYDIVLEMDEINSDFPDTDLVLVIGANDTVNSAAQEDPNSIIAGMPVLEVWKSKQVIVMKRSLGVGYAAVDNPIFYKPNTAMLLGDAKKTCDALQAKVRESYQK

In the case of “3FLAG-PC1-3HA (PC1 tagged with a 3xFLAG epitope at its N-terminus and a 3xHA sequence at its C-terminus, Pkd1F/H-BAC mouse) and its HA-tagged fragments (150-kDa CTF; PC1-CTT-3HA fragments of 17-37 kDa) (from UniProt O08852 3041-4293)”, the fold amount of NNT co-immunoprecipitated against control WT immunoprecipitates in assay [1] was above 16 fold. In assay [2], the fold enrichment in immunoprecipitates against WT worked out at 4 fold.

Source of the values: patent US20240400627A1.
